Data taken from publication PMC4930721 (Cancer discovery, 2016).
Where no end group is shown, it is not given here. Me3 = trimethyl-lysine

Target: LEDGF PWWP (residues 1-120), 15N-labeled (UniProt O75475 1-120, uniformly 15N-labeled)
Assay: NMR titration

LEDGF PWWP (residues 1-120), 15N-labeled, sequence (O75475 1-120): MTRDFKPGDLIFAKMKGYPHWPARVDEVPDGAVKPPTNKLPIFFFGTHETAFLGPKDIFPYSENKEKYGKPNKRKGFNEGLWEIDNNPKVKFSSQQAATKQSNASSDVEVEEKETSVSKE

Binder: ATGGVK(Me3)KPHR [histone H3K36me3 peptide]
- Kd: 4.4 mM
